# Assay results published in PMC5646249, “Structural Basis of Type 2 Secretion System Engagement between the Inner and Outer Bacterial Membranes” (mBio, 2017).
# B1: XcpQ secretin of the Pseudomonas aeruginosa PAO1 type 2 secretion system (natural protein)
# chain: ENSGGNAFVPAGNQQEAHWTINLKDADIREFIDQISEITGETFVVDPRVKGQVSVVSKAQLSLSEVYQLFLSVMSTHGFTVVAQGDQARIVPNAEAKTEAGGGQSAPDRLETRVIQVQQSPVSELIPLIRPLVPQYGHLAAVPSANALIISDRSANIARIEDVIRQLDQKGSHDYSVINLRYGWVMDAAEVLNNAMSRGQAKGAAGAQVIADARTNRLIILGPPQARAKLVQLAQSLDTPTARSANTRVIRLRHNDAKTLAETLGQISEGMKNNGGQGGEQTGGGRPSNILIRADESTNALVLLADPDTVNALEDIVRQLDVPRAQVLVEAAIVEISGDIQDAVGVQWAINKGGMGGTKTNFANTGLSIGTLLQSLESNKAPESIPDGAIVGIGSSSFGALVTALSANTKSNLLSTPSLLTLDNQKAEILVGQNVPFQTGSYTTNSEGSSNPFTTVERKDIGVSLKVTPHINDGAALRLEIEQEISALLPNAQQRNNTDLITSKRSIKSTILAENGQVIVIGGLIQDDVSQAESKVPLLGDIPLLGRLFRSTKDTHTKRNLMVFLRPTVVRDSAGLAALSGKKYSDIRVIDGTRGPEGRPSILPTNANQLFDGQAVDLRELMTE
# notes: XcpQ, the secretin of the ancestral T2SS of Pseudomonas aeruginosa PAO1; four N domains (N0-N3), secretin domain (Pfam PF00263), S domain; numbers count on: the mature protein; N0 domains not seen and N1 domains poorly resolved in the map, though part of the purified protein; also called XcpQ secretin complex; XcpQ multimer; copies: 15
# Target: the molecule itself
# Assay: cryo-EM structure; single-particle cryo-EM of the detergent-solubilised, amphipol-stabilised ~1-MDa XcpQ multimer flash frozen on vitreous ice; Titan Krios, Gatan K2 Summit; 18,000+ particles; 2D class averages and 3D reconstruction under C15 symmetry, 3.6 Å
protein,measurement,value
B1,stoichiometry N,15
